Measured values: the supplement of paper PMC10126150
± gives the standard deviation of the averaged measurements.

These sequences were tested on ATP (assay: switch fluorescence ratio, 500 uM ATP over buffer (Cy3 cluster intensity, sum of 5 cycles each) (fold (ratio)); higher = stronger signal-on switching upon ATP binding; sequences stand for … in TCGTCGGCAGCGTCAGATGTGTATAAGAGACAGTTTTTTTTTTTTTTTTTTTTTTTTT…TC). Settings: aptamer strand: ATP DNA aptamer (quencher-CACCTGGGGGAGTATTGCGGAGGAAGG + anchor), 100 nM annealed; ATP concentration: 500 uM.
How it was run: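 Clusters with intensities outside 100-1000 RFU were excluded. The remaining Cy3-labelled switching-strand clusters on a modified Illumina MiSeq flow-cell had been annealed to 100 nM quencher-labelled ATP aptamer and imaged in selection buffer, then after 15 min with 500 uM ATP at 22 °C, for five cycles separated by NaOH stripping and re-annealing. The fluorescence ratio, averaged per switch-domain sequence, is each cluster's summed target-cycle Cy3 intensity over its summed buffer-cycle Cy3 intensity.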
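Note: ATP exposure 15 min at 22 °C before imaging.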

Point of comparison: TAGACTATGG, switch fluorescence ratio 1.04 ± 0.023. Against it:
- GCAAGCGGGA — within error, 1.07 ± 0.079
- CGGTCCGGG — within error, 1.05 ± 0.061
- GTCGGTATTC — lower, 0.9947 ± 0.0081
- AATAAAGCGT — lower, 0.983 ± 0.028
- CTAAATTTAG — within error, 0.995 ± 0.023
- TATTTGCACG — within error, 1.07 ± 0.062
- TCGTTTTTAT — lower, 0.983 ± 0.023
- GTTAGATTGG — lower, 0.982 ± 0.013
- ATGGCTTTTG — within error, 1.02 ± 0.037
- TATGGAGTTG — within error, 0.992 ± 0.032
- GCCTTTCAGA — lower, 1.005 ± 0.0053
- ATGTAGCGGT — higher, 1.12 ± 0.013
- GAAGTCTGTG — within error, 1 ± 0.047
- TTACTGTTAC — higher, 1.32 ± 0.083
- TTTGTTGTAA — within error, 1.01 ± 0.034
- TTATTAGGGT — within error, 1 ± 0.022
- GTGGAAAGCG — within error, 0.981 ± 0.059
- ATTTGGGTAG — within error, 1.01 ± 0.062
- GCGTCAGGTG — higher, 3.82 ± 0.21
- GGCGGAGTGC — within error, 1.01 ± 0.027
- TCAGGAGTCT — within error, 0.977 ± 0.062
- TAGTGGGGTA — lower, 0.98 ± 0.032
- ACAGCTGTTA — within error, 1.02 ± 0.019
- TTTTGGCGAA — lower, 0.989 ± 0.015
- GAGCGTGTGA — within error, 1.02 ± 0.019
- AATCATCCTC — within error, 1.06 ± 0.043
- TTAACTGCAC — higher, 1.44 ± 0.056
- AGCTATGTTA — within error, 1.03 ± 0.0045
- GACTATGAGA — lower, 0.9936 ± 0.0039
- CACAAGGGCG — lower, 0.94 ± 0.02
- CCAATGTGCG — lower, 0.9925 ± 0.0092
- GAGAGGGGGG — within error, 1 ± 0.025
- TGGTAAAGGC — within error, 0.979 ± 0.042
- GAGCCTCGGA — within error, 1.29 ± 0.44
- ATCGCAATTG — higher, 1.89 ± 0.36
- AGTGCTGCGA — within error, 1.02 ± 0.044
- TTGGTCCGTC — within error, 1.01 ± 0.047
- ATTAGTAACG — within error, 1.03 ± 0.0071
- GGAAGATACG — within error, 1.03 ± 0.015
- TGTTTATTGG — within error, 1.01 ± 0.065
- AGGAAGTCTT — lower, 0.941 ± 0.021
- GGCATTTCTA — the same, 1.04 ± 0.018
- GGGTTATTTC — within error, 1.02 ± 0.023
- TTGTTAGTAT — lower, 0.996 ± 0.021
- TTCCCTAATC — within error, 1.02 ± 0.067
- AGCCTTTCGT — within error, 1.01 ± 0.054
- TATATCTTCA — within error, 1.017 ± 0.0055
- ACGGTAGGGT — within error, 1.12 ± 0.06
- GGCTGGGATG — within error, 1.02 ± 0.095
- ATGAGGTTTC — lower, 0.989 ± 0.016
- AAGGGATTCT — within error, 1.03 ± 0.084
- CTCTGTCACG — within error, 1.11 ± 0.074
- TCGGTCCGAT — lower, 0.9997 ± 0.005
- TTTTAGGGCT — within error, 0.989 ± 0.03
- AAAGGGCTCT — lower, 0.9821 ± 0.0078
- CACATTAACT — higher, 1.094 ± 0.0047
- TTGAGTGGAG — within error, 1.02 ± 0.029
- TCGGCGAAAG — within error, 1.02 ± 0.023
- TTTCTTGTAT — within error, 1.02 ± 0.016
- GGGAATACAT — within error, 1.01 ± 0.028
- AAAAGTTGGG — within error, 1.01 ± 0.014
- TATGTGGGTA — lower, 0.983 ± 0.026
- GGTTAAGGCC — within error, 1.033 ± 0.007
- TTGTTAAATG — within error, 1.02 ± 0.056
- TAGTGGGGGC — within error, 1.01 ± 0.044
- TACGGAAATG — the same, 1.0398 ± 0.00093
- TCTTACGGGG — lower, 1.003 ± 0.01
- GAGGTTTAGA — lower, 0.98753 ± 9.8e-05
- AGGTTATAGG — within error, 1.05 ± 0.091
- GCATGCAGGG — within error, 1.01 ± 0.045
- TAATAAAATG — lower, 0.99 ± 0.015
- TTTTTGCAGT — within error, 1.02 ± 0.082
- ACGAATGCGT — within error, 0.975 ± 0.047
- CCAGTTTGGT — lower, 0.9871 ± 0.0073
- AGGGCAGGG — within error, 0.975 ± 0.065
- CTAATTGAAC — lower, 1.009 ± 0.0032
- TTACATGATG — within error, 1.01 ± 0.013
- CGTTAAACTT — within error, 1.01 ± 0.012
- AAGTTGGGAG — within error, 1 ± 0.019
- TACTCACGAA — higher, 1.42 ± 0.027
- CACGAAGGTG — higher, 1.16 ± 0.032
- TATGGTGTTC — lower, 0.981 ± 0.015
- CGCGTGTCTG — within error, 1.022 ± 0.0039
- TAGATGTTTT — within error, 0.986 ± 0.035
- ATCGGAAAG — within error, 1.65 ± 0.92
- ATACGATGAT — the same, 1.04 ± 0.017
- TGAGGGGATA — within error, 1.01 ± 0.025
- TTTATGGCAT — within error, 1.02 ± 0.027
- GCTAATGGGA — lower, 0.994 ± 0.018
- TCGTTGGTTT — lower, 0.994 ± 0.021
- TTTTCACGCA — within error, 1.57 ± 0.53
- TAGGGAAGAT — within error, 1.07 ± 0.013
- GGGGGGATGG — within error, 1.07 ± 0.23
- TTGACCAATA — higher, 1.12 ± 0.016
- GTGGACGGGG — lower, 0.983 ± 0.033
- AAGATCATCT — within error, 1.01 ± 0.023
- TTTTGAAAGG — lower, 0.976 ± 0.01
- GAGTCTGGT — lower, 0.981 ± 0.036
- GTTAGCTTGC — within error, 0.996 ± 0.029
- GAGATGGGGT — lower, 0.995 ± 0.016
- TTTTAACATT — within error, 1.06 ± 0.081
- TTTCGTTTGG — within error, 0.981 ± 0.042
- TGGGAGCATA — within error, 1.05 ± 0.022
- CGTTTGGGCT — within error, 1.023 ± 0.0037
- ATATGTGGTA — within error, 1.01 ± 0.031
- TGAACTTGGT — within error, 0.929 ± 0.12
- TAAGGTTCAC — lower, 1.003 ± 0.0083
- AGCGAGGGAG — lower, 1.005 ± 0.0059
- AAAGCCTGGG — lower, 0.966 ± 0.027
- CCTTTAGATT — within error, 1.01 ± 0.013
- CTGACATGAT — within error, 1.07 ± 0.04
- TTTGGTTGCC — within error, 1.05 ± 0.085
- TTTTCGCTGG — within error, 1.01 ± 0.049
- TTCAGAGACT — within error, 1 ± 0.034
- TTCATATATG — lower, 0.989 ± 0.018
- CATCGAGGAC — within error, 1.06 ± 0.072
- TTTTGGCCAA — within error, 1.01 ± 0.041
- AAGTCTTTCG — within error, 1.01 ± 0.012
- GATATGCTGT — lower, 0.985 ± 0.017
- AATATTCATT — within error, 0.985 ± 0.069
- GTTGTTAGGT — lower, 0.97 ± 0.022
- TAGGGGGGTG — within error, 1.02 ± 0.025
- ATTTATCGGG — within error, 1 ± 0.027
- GTGTTGGGGT — lower, 0.986 ± 0.02
- GCATTTTTTT — within error, 0.996 ± 0.032
- CTGTTAATTG — within error, 1.016 ± 0.0081
- TTACGGGCGG — within error, 1.03 ± 0.078
- AAGGAAAACG — lower, 0.969 ± 0.021
- CCCATGGGGG — within error, 1.01 ± 0.028
- CCGAGATCGT — within error, 1.02 ± 0.033
- GCGAATTTTG — lower, 0.9994 ± 0.0081
- TTGGTTGTGG — lower, 0.972 ± 0.018
- TTACCTGAAC — higher, 2.02 ± 0.31
- TCATGGTCGT — lower, 0.982 ± 0.023
- TCGGAGATAT — within error, 1 ± 0.045
- TGGGTACTGG — within error, 1.02 ± 0.018
- GAAAAAGGTC — within error, 1.031 ± 0.008
- GGGGGAGTTC — within error, 1.02 ± 0.014
- TTCGGTTTGG — lower, 0.9952 ± 0.0061
- TTGACAAGGG — lower, 0.997 ± 0.015
- TTTTTTAACA — within error, 1.01 ± 0.027
- GCCCAATATC — higher, 2.68 ± 0.053
- TTGGTTACTG — within error, 1.03 ± 0.07
- TTTGAAGAAA — within error, 1.06 ± 0.033
- GTTTAGTAAG — lower, 1 ± 0.013
- CCTTGCAGAT — higher, 1.99 ± 0.78
- TGTTTTCATT — lower, 0.973 ± 0.044
- GGTCTTAACT — lower, 0.967 ± 0.028
- AAAAGTACGA — within error, 1.07 ± 0.011
- CCTTTGCAGG — higher, 2.45 ± 0.27
- AACGATTTTT — within error, 1.007 ± 0.0084
- TATGGCATAC — higher, 1.51 ± 0.02
- TAGAAGCCGG — lower, 0.98897 ± 0.00029
- TTCGAGCCGA — within error, 1.029 ± 0.0064
- ATGAAGCGGT — the same, 1.04 ± 0.083
- TTGTTATAGG — within error, 1.06 ± 0.14
- TTTCTAATAT — lower, 1 ± 0.014
- AAGGAAGGCC — lower, 1.0145 ± 0.00052
- CGCTAATGCG — the same, 1.04 ± 0.059
- CCGCGGCGAA — higher, 1.47 ± 0.22
- GGAATACGAT — within error, 1.09 ± 0.16
- CGTCTGGGAT — within error, 1.01 ± 0.037
- ACTGTACCGG — higher, 1.45 ± 0.04
- CCACAGGGCA — higher, 1.34 ± 0.059
- GAGGTAGCTA — within error, 1.03 ± 0.0051
- AAGTTTGGTG — within error, 0.986 ± 0.042
- TCTTCGGTTG — lower, 0.9805 ± 0.0096
- TCTGATAGTT — within error, 0.998 ± 0.021
- CTCTGAGGGA — within error, 1.01 ± 0.027
- TAAAAAGATT — lower, 0.988 ± 0.019
- AACATAAAAA — within error, 1.26 ± 0.4
- GATTAGGAGT — lower, 0.985 ± 0.014
- CTAGTCAATC — higher, 1.7 ± 0.072
- GTTTACTTTT — lower, 0.986 ± 0.013
- GGCTCCAGCT — lower, 0.978 ± 0.028
- GTGAAGACGT — lower, 1.002 ± 0.0077
- TTCATTTGTT — within error, 1.11 ± 0.16
- AAGTTGTCAA — lower, 1.011 ± 0.0052
- ATAGGACGCA — higher, 1.265 ± 0.0027
- GTTTTCTTAT — within error, 0.998 ± 0.029
- GAGGGAATCG — lower, 0.9635 ± 0.001
- TGATGGTATA — within error, 1.01 ± 0.025
- GGGTGCAGGC — lower, 0.675 ± 0.032
- GAGGGGATTT — within error, 1.01 ± 0.013
- AGATAAACTC — within error, 1.03 ± 0.051
- ATAGGGGA — lower, 0.989 ± 0.018
- AAGCTTGGCT — lower, 0.965 ± 0.028
- ATTGTGGGCG — lower, 0.952 ± 0.017
- TTAATCGTGT — within error, 0.995 ± 0.037
- TATGGGGCTT — lower, 0.992 ± 0.017
- GTTCAAGGGG — within error, 0.983 ± 0.039
- GTGATACCCG — within error, 1.02 ± 0.058
- AGTGGGGGGC — within error, 0.998 ± 0.02
- TGTCGCGTAG — within error, 0.993 ± 0.034
- ACTATATTTA — within error, 1.034 ± 0.0063
- TTTAGACGTT — within error, 1.02 ± 0.016
- CTAGGTGACG — lower, 1.004 ± 0.0075
- AGGGTAACGG — within error, 0.995 ± 0.028
- GGAAATGTTG — within error, 0.991 ± 0.041
